Ki data for one molecule are collected here from patent US20230041661A1 (Bicycle, published 2023).

This assay deals with T1, Human IL-17A (human, UniProt Q16552 24-155).
T1 construct: also called Interleukin-17; CTLA-8
T1 sequence (looked up): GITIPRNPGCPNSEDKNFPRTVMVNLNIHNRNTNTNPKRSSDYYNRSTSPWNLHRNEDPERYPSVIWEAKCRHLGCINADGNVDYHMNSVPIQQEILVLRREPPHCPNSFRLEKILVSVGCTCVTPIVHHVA
Nature of the assay: fluorescence polarisation competition, 75 nM human IL-17A, 1 nM tracer BCY13196 as competitor, mean of n=3, Cheng Prusoff fit. Here is the method:
Affinity determination by fluorescence polarization (FP) competition. Bicycles were screened to determine affinity (Ki) in a fluorescence polarisation assay where in competition with a bicycle labelled with fluorescein (referred to as tracer) with a known affinity for IL-17A. Peptides were diluted to an appropriate concentration in assay buffer (PBS+0.01% Tween20, adjusted to pH7.4 using NaOH (1M)) with a maximum of 1% DMSO, then serially diluted 1 in 2 into assay buffer. Into black 384-well low volume plates, […] of diluted peptide was added to the plate followed by […] of IL-17A at a fixed concentration (75 nM IL-17A for tracer BCY13196, 50 nM IL-17A for tracer BCY13351), then […] tracer added to a final concentration of 1 nM. Measurements were conducted on a BMG PHERAstar FS equipped with an “FP 485 520 520” optic module which excites at 485 nm and detects parallel and perpendicular emission at 520 nm. The PHERAstar FS was set at 25° C. with 200 flashes per well and a positioning delay of 0.1 second, with each well measured at 5 to 10 minute intervals for 60 minutes. The gain used for measurements was determined at the point of experiment on a tracer alone well. […]
Selected peptide ligands of the invention were tested in the above mentioned IL-17A human fluorescence polarization (FP) competition assay and the results are shown in Table 1: […]
(In fluorescence polarisation assays a small probe gives low polarisation when free and higher when bound to something large.)

Numbered stars: 1 amine (or outer) side, 2 acyl side, 3 side chain; on linkers, the order of the positions; unused ones are H or OH. Bridge positions count the residues as written; N and C are the ends. Ends that are not written are not given here. TAST = 1,4,7-tris(vinylsulfonyl)-1,4,7-triazonane scaffold, O=S(=O)(CC[*:1])N1CCN(S(=O)(=O)CC[*:2])CCN(S(=O)(=O)CC[*:3])CC1

B1: BCY13059 (peptide)
peptide: ACPQDLELCTFLFGDCA
modifications: linker 2-9-16 via TAST
notes: Synthetic bicyclic peptide cyclised on TAST
By Ki is commonly meant a dissociation constant, usually derived from enzyme kinetics or from competition with a known ligand. As for B1, the Ki turned out to be 313 nM.
